In US20220332804A1 (CSL INNOVATION, published 2022):

Experiments:
Assay in all cases: SPR, antibody captured, C2 as analyte;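 also: biacore at 37 °C, anti-C2 mAbs held by immobilised goat anti-human IgG, C2 alanine or serine mutants injected, double-referenced sensorgrams fitted to a 1:1 kinetic or steady-state model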
human C2 H451A = biological target: T1, human C2 H451A (human, UniProt P06681 21-752)
T1 sequence: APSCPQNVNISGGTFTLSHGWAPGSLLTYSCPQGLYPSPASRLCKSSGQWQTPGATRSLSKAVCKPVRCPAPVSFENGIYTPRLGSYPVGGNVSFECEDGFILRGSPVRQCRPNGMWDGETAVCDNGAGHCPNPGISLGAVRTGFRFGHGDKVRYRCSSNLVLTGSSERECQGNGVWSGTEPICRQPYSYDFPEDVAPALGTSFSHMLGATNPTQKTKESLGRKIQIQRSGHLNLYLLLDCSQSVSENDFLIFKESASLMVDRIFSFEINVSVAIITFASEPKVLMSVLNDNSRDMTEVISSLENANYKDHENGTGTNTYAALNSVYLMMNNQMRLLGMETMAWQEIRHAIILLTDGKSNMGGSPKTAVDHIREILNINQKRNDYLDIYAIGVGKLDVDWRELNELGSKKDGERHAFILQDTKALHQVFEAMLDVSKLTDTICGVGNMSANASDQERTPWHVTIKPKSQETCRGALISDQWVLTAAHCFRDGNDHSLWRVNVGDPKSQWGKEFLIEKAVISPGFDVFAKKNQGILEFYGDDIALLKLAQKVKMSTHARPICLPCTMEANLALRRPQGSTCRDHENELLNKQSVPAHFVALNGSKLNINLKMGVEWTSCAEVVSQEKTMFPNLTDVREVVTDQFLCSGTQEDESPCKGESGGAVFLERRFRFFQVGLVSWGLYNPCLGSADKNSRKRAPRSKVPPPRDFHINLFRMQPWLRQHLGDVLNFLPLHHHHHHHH

human C2 S428A = biological target: T2, human C2 S428A (human, UniProt P06681 21-752)
T2 sequence: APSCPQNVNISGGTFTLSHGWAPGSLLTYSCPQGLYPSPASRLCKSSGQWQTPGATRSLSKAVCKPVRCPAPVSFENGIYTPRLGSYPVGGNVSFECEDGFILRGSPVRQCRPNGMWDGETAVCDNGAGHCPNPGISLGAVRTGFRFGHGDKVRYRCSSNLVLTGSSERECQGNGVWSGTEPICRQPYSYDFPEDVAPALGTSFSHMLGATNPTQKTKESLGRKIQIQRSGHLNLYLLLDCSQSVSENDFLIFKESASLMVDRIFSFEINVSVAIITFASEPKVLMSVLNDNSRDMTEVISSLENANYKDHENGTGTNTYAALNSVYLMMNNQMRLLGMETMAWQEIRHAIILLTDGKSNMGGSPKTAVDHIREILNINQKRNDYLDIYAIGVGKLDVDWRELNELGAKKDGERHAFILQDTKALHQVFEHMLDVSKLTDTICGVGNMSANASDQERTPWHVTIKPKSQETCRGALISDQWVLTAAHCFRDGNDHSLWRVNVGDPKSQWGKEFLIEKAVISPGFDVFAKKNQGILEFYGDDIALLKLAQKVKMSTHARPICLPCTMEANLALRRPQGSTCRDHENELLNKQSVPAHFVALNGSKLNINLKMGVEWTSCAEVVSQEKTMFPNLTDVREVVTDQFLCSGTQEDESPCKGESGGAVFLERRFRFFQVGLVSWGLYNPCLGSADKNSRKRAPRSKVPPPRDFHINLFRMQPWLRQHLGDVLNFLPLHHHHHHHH

human C2 A436S = biological target: T3, human C2 A436S (human, UniProt P06681 21-752)
T3 sequence: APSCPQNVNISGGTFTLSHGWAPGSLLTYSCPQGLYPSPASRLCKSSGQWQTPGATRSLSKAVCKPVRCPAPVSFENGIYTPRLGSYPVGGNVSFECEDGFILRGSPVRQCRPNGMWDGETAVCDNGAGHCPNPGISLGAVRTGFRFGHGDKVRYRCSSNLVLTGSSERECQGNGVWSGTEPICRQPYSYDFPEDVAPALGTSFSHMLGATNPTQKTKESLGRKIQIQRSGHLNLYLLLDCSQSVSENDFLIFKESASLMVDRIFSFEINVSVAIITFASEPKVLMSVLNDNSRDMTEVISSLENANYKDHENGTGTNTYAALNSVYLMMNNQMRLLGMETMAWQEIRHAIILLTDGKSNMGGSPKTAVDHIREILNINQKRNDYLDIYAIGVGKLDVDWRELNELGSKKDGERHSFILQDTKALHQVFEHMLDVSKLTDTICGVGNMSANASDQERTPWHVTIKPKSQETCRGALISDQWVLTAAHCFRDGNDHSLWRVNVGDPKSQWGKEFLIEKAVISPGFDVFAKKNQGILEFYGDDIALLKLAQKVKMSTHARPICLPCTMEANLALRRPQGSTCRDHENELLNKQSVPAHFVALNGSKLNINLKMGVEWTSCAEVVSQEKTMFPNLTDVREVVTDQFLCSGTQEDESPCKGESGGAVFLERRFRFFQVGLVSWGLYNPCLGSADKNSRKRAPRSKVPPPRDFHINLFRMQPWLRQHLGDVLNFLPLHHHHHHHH

human C2 D269A = biological target: T4, human C2 D269A (human, UniProt P06681 21-752)
T4 sequence: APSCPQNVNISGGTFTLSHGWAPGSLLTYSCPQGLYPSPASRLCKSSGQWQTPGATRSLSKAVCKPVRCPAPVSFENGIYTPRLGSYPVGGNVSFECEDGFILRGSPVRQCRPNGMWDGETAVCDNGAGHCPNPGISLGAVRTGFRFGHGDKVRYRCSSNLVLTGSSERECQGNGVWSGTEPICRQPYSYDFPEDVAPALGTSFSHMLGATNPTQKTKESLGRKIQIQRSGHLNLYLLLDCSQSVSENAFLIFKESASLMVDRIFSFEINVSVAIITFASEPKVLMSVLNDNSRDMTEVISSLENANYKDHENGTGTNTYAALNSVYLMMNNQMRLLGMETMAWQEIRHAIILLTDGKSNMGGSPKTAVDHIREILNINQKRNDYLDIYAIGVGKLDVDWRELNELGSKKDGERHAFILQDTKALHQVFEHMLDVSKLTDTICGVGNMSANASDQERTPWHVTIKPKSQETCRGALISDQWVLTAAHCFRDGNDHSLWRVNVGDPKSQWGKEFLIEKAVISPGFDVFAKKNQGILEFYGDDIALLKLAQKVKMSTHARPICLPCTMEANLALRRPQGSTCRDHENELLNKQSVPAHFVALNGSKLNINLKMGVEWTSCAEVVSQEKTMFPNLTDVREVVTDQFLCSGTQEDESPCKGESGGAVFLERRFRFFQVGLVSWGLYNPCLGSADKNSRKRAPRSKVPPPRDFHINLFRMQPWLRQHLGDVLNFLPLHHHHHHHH

B1: RF16-242 (antibody, human IgG4 S228P, lambda, V domains shown)
VH: EVQLLQSGAEVKKPGESLKISCKGSGYSFTSYWIGWVRQMPGKGLEWMGIIYPGDSDTRYSPSFQGQVTISADKSISTAYLQWSSLKASDTAMYYCARRGHYGDYFDYWGQGTLVTVSS
VL: SYELTQPPSVSVSPGQTARITCSGDALPKKYAYWYHQKSGQAPVLVIYEDRRRPSEIPERFSGSSSGTMATLTITGAQVEDEGVYFCYSRDRAGNQRVFGGGTQLTVLG
notes: pH-dependent anti-C2 antibody from a phage display library
Kd (human C2 H451A): 21.3 nM | Kd (human C2 S428A): 18.6 nM | Kd (human C2 A436S): 4.9 nM | Kd (human C2 D269A): 12.9 nM
